Experimental data published in the supplement of paper PMC10567573.

B1: HSP90AB1 (parent)
chain: YHTSQSGDEMTSLSEYVSRMKETQ

Variants of: B1
Assay: protein stability index of a GFP-peptide fusion (GPS, HEK-293T) (PSI 1-6); higher = more stable
Details: c terminus: a fixed tail appended
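Also: lentivirally expressed fusions sorted by FACS into six bins by GFP to DsRed ratio, PSI derived from sequencing read proportions per bin multiplied by bin number.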

Variant | protein stability index
YHTSQSGDEMTSLSKYVSRMKETQ | 3.48
YHTSQSGDEMTSLSLYVSRMKETQ | 1.99
YHTSQSGDEMTSLSNYVSRMKETQ | 3.77
YHTSQSGDEMTSLSPYVSRMKETQ | 1.87
YHTSQSGDEMTSLSQYVSRMKETQ | 3.15
YHTSQSGDEMTSLSRYVSRMKETQ | 2.85
YHTSQSGDEMTSLSSYVSRMKETQ | 2.87
YHTSQSGDEMTSLSTYVSRMKETQ | 2.79
YHTSQSGDEMTSLSVYVSRMKETQ | 1.89
YHTSQSGDEMTSLSWYVSRMKETQ | 1.48
YHTSQSGDEMTSLSYYVSRMKETQ | 2.65
YHTSQSGDEMTSLSEAVSRMKETQ | 4.17
YHTSQSGDEMTSLSECVSRMKETQ | 4.16
YHTSQSGDEMTSLSEDVSRMKETQ | 4.74
YHTSQSGDEMTSLSEEVSRMKETQ | 4.37
YHTSQSGDEMTSLSEFVSRMKETQ | 3.49
YHTSQSGDEMTSLSEGVSRMKETQ | 4
YHTSQSGDEMTSLSEHVSRMKETQ | 4.1
YHTSQSGDEMTSLSEIVSRMKETQ | 3.09
YHTSQSGDEMTSLSEKVSRMKETQ | 3.53
YHTSQSGDEMTSLSELVSRMKETQ | 3.41
YHTSQSGDEMTSLSEMVSRMKETQ | 4.16
YHTSQSGDEMTSLSENVSRMKETQ | 4.3
YHTSQSGDEMTSLSEPVSRMKETQ | 4.02

Variant | protein stability index
YHTSQSGDEMTSLSEQVSRMKETQ | 4.17
YHTSQSGDEMTSLSERVSRMKETQ | 3.98
YHTSQSGDEMTSLSESVSRMKETQ | 4.22
YHTSQSGDEMTSLSETVSRMKETQ | 4.02
YHTSQSGDEMTSLSEVVSRMKETQ | 3.79
YHTSQSGDEMTSLSEWVSRMKETQ | 2.69
YHTSQSGDEMTSLSEYASRMKETQ | 3.85
YHTSQSGDEMTSLSEYCSRMKETQ | 3.27
YHTSQSGDEMTSLSEYDSRMKETQ | 4.57
YHTSQSGDEMTSLSEYESRMKETQ | 4.49
YHTSQSGDEMTSLSEYFSRMKETQ | 3.23
YHTSQSGDEMTSLSEYGSRMKETQ | 3.76
YHTSQSGDEMTSLSEYHSRMKETQ | 3.54
YHTSQSGDEMTSLSEYISRMKETQ | 3.22
YHTSQSGDEMTSLSEYKSRMKETQ | 4.08
YHTSQSGDEMTSLSEYLSRMKETQ | 3.56
YHTSQSGDEMTSLSEYNSRMKETQ | 4.12
YHTSQSGDEMTSLSEYPSRMKETQ | 3.86
YHTSQSGDEMTSLSEYQSRMKETQ | 4.04
YHTSQSGDEMTSLSEYRSRMKETQ | 4.27
YHTSQSGDEMTSLSEYSSRMKETQ | 3.87
YHTSQSGDEMTSLSEYTSRMKETQ | 3.72
YHTSQSGDEMTSLSEYWSRMKETQ | 2.41
YHTSQSGDEMTSLSEYYSRMKETQ | 3.33

Variant | protein stability index
YHTSQSGDEMTSLSEYVARMKETQ | 3.72
YHTSQSGDEMTSLSEYVCRMKETQ | 2.87
YHTSQSGDEMTSLSEYVDRMKETQ | 4
YHTSQSGDEMTSLSEYVERMKETQ | 3.8
YHTSQSGDEMTSLSEYVGRMKETQ | 3.36
YHTSQSGDEMTSLSEYVHRMKETQ | 3.35
YHTSQSGDEMTSLSEYVIRMKETQ | 3
YHTSQSGDEMTSLSEYVKRMKETQ | 3.53
YHTSQSGDEMTSLSEYVLRMKETQ | 2.74
YHTSQSGDEMTSLSEYVMRMKETQ | 3.41
YHTSQSGDEMTSLSEYVNRMKETQ | 3.31
YHTSQSGDEMTSLSEYVPRMKETQ | 3.92
YHTSQSGDEMTSLSEYVQRMKETQ | 3.66
YHTSQSGDEMTSLSEYVRRMKETQ | 3.6
YHTSQSGDEMTSLSEYVTRMKETQ | 3.81
YHTSQSGDEMTSLSEYVVRMKETQ | 3.23
YHTSQSGDEMTSLSEYVWRMKETQ | 1.77
YHTSQSGDEMTSLSEYVYRMKETQ | 2.56
YHTSQSGDEMTSLSEYVSAMKETQ | 3.72
YHTSQSGDEMTSLSEYVSDMKETQ | 4.41
YHTSQSGDEMTSLSEYVSEMKETQ | 4.66
YHTSQSGDEMTSLSEYVSFMKETQ | 3.15
YHTSQSGDEMTSLSEYVSGMKETQ | 4.09
YHTSQSGDEMTSLSEYVSHMKETQ | 3.68

Variant | protein stability index
YHTSQSGDEMTSLSEYVSIMKETQ | 3.66
YHTSQSGDEMTSLSEYVSKMKETQ | 4.27
YHTSQSGDEMTSLSEYVSLMKETQ | 3.22
YHTSQSGDEMTSLSEYVSMMKETQ | 3.89
YHTSQSGDEMTSLSEYVSNMKETQ | 4.32
YHTSQSGDEMTSLSEYVSPMKETQ | 3.47
YHTSQSGDEMTSLSEYVSQMKETQ | 4.15
YHTSQSGDEMTSLSEYVSSMKETQ | 3.8
YHTSQSGDEMTSLSEYVSTMKETQ | 4.18
YHTSQSGDEMTSLSEYVSVMKETQ | 3.67
YHTSQSGDEMTSLSEYVSWMKETQ | 3.46
YHTSQSGDEMTSLSEYVSYMKETQ | 3.7
YHTSQSGDEMTSLSEYVSRAKETQ | 4.62
YHTSQSGDEMTSLSEYVSRCKETQ | 3.81
YHTSQSGDEMTSLSEYVSRDKETQ | 4.46
YHTSQSGDEMTSLSEYVSREKETQ | 3.73
YHTSQSGDEMTSLSEYVSRFKETQ | 2.89
YHTSQSGDEMTSLSEYVSRGKETQ | 4.37
YHTSQSGDEMTSLSEYVSRHKETQ | 4.16
YHTSQSGDEMTSLSEYVSRIKETQ | 3.29
YHTSQSGDEMTSLSEYVSRKKETQ | 4.11
YHTSQSGDEMTSLSEYVSRLKETQ | 3.42
